The series concerns the target SerRS (seryl-tRNA synthetase) wild type (Homo sapiens, UniProt P49591 SEQ:1-514). As to the kind of experiment: EMSA; 20 mM Tris pH 8.0, 60 mM KCl, 5 mM MgCl2, poly(dG-dC), room temperature. Particulars: tags: C-terminal His6; label: 5'-32P. The protocol: The 27 bp DNA oligonucleotides corresponding to SerRS binding site on the VEGFA promoter (5′ GGCGGGGCGGAGCCATGCGCCCCCCCC 3′ (SEQ ID NO: 36)) were synthesized, annealed, and [³²P]-labeled at the 5′ end by T4 DNA kinase (New England Biolabs, Ipswich, Mass., USA) before desalting using a sephadex G-25 spin column (GE Healthcare, Pittsburgh, Pa., USA). The labeled oligonucleotides (0.08 pmol) were incubated with recombinant SerRS at indicated concentrations in binding buffer (20 mM Tris-HCl, pH 8.0, 60 mM KCl, 5 mM MgCl₂, 0.1 mg ml⁻¹ BSA, 10 ng μl⁻¹ poly (dG-dC), 1 mM DTT) for 30 min at room temperature. The samples were loaded to 5% native polyacrylamide gel (17.5 cm in length) and underwent electrophoresis at 250 V in running buffer (25 mM Tris, pH 8.3, 190 mM glycine). Afterwards, the gel was dried and examined by autoradiography.
The effect of hypoxia on the interaction of SerRS with VEGFA promoter was also explored. As detected by electrophoresis mobility shift assay (EMSA), the direct binding between SerRS and a ³²P-labeled 27-bp DNA fragment previously identified as the SerRS binding site from the VEGFA promoter in Shi et al. 2014 was attenuated by the phosphor-mimicking mutant SerRS^{S101D/S241D} (FIG. 2E).
On the technique in general: Mobility shift assays separate free from complexed probe on a gel.

The values below come from US20190167771, “CONTROL ANGIOGENESIS BY REGULATING PHOSPHORYLATION OF SERYL-tRNA SYNTHETASE (SerRS)” (The Scripps Research Institute, published 2019).

Chain of SerRS (seryl-tRNA synthetase) wild type (P49591 whole entry): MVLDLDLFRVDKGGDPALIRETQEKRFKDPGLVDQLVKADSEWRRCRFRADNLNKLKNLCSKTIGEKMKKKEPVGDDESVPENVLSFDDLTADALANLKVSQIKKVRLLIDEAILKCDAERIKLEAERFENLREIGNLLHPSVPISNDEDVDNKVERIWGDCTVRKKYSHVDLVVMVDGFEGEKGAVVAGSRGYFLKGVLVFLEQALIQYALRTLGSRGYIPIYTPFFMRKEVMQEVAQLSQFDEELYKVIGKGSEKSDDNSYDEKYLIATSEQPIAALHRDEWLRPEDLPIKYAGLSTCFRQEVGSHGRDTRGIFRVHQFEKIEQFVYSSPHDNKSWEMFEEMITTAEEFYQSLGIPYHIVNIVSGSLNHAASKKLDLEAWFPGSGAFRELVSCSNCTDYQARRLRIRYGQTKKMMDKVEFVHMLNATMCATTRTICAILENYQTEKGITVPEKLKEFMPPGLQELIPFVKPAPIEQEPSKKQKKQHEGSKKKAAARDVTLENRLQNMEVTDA

B1: VEGFA promoter 27-bp SerRS site (dsDNA)
DNA 1: GGCGGGGCGGAGCCATGCGCCCCCCCC
DNA 2: GGGGGGGGCGCATGGCTCCGCCCCGCC
Regarding B1, the binding result is “binds”.
